Measurements as given in publication PMC9897667 (2023).

How the values were obtained:
[1] = target: human TLR4 (ECD-His Tag, residues 1 to 631) (human, UniProt O00206 24-631); test: SPR
[2] = target: extracellular domain of human RAGE (residues 1 to 344) (human, UniProt Q15109 23-344); test: SPR
extracellular domain of human RAGE (residues 1 to 344), sequence (Q15109 23-344): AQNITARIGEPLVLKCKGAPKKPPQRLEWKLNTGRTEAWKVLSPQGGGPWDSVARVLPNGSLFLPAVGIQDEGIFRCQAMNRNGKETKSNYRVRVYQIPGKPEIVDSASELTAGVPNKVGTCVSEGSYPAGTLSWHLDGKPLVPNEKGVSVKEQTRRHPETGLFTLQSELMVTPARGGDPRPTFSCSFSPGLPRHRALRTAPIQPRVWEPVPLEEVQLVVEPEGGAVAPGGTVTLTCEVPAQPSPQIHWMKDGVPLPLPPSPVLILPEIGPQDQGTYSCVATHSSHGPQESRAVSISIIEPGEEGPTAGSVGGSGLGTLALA

human TLR4 (ECD-His Tag, residues 1 to 631), sequence (O00206 24-631): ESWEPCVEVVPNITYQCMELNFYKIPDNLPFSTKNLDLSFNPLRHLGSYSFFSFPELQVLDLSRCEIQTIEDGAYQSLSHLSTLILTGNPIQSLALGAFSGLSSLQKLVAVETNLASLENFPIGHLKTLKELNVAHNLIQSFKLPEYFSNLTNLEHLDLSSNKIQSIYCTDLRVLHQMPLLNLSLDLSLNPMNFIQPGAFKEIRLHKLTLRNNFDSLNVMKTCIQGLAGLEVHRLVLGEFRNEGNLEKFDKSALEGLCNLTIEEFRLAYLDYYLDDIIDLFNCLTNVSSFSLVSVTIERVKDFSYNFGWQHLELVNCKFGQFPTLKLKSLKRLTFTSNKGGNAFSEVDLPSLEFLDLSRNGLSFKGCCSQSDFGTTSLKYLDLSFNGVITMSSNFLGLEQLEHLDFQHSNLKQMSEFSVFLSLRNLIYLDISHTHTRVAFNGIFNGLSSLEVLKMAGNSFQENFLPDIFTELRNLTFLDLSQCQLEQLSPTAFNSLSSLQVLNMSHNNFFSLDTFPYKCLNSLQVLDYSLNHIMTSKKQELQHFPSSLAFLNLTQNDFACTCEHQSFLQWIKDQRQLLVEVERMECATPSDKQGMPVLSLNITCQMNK

B1: recombinant human procathepsin L (pCTS-L) (natural protein)
chain: TLTFDHSLEAQWTKWKAMHNRLYGMNEEGWRRAVWEKNMKMIELHNQEYREGKHSFTMAMNAFGDMTSEEFRQVMNGFQNRKPRKGKVFQEPLFYEAPRSVDWREKGYVTPVKNQGQCGSCWAFSATGALEGQMFRKTGRLISLSEQNLVDCSGPQGNEGCNGGLMDYAFQYVQDNGGLDSEESYPYEATEESCKYNPKYSVANDTGFVDIPKQEKALMKAVATVGPISVAIDAGHESFLFYKEGIYFEPDCSSEDMDHGVLVVGYGFESTESDNNKYWLVKNSWGEEWGMGGYVKMAKDRRNHCGIASAASYPTV
- Kd [1]: 18 nM
- Kd [2]: 2.7 nM
